Assay results reported in patent US20090203610A1, “METHODS OF TREATING OBESITY OR DIABETES USING NT-4/5” (RINAT NEUROSCIENCE CORPORATION, priority 2004, published 2009).

Tests used:
Format in all cases: in vivo
db/db mice [1] = assay: Body weight and food intake, daily s.c. dosing day 1 to 30 in db/db mice (Example 2)
Method: Female db/db mice (12 weeks old) were divided into three groups and were subcutaneously injected with vehicle (PBS) or NT-4/5 at doses of 5 mg/kg, or 20 mg/kg daily from day 1 to day 30. […] Food intake was reduced to about 20% of the vehicle group level after 10 days of administration of NT-4/5 at 20 mg/kg and was maintained at that level until day 30. Food intake was returned to about the same level as the vehicle group about 12 days after stop of treatment.

DIO mice [2] = assay: Body weight and food intake in high fat diet-induced obese (DIO) mice (Example 5); settings: 2 and 10 mg/kg s.c.; P<0.001; dose dependent
Method: (§1) Test animals: Mice with diet induced obesity (DIO) from Jackson Laboratory were used in this study. El-Haschimi, J. Clin. Invest. 105:1827-1832 (2000); Steppan, Nature 409:307-312 (2001). 23 male C57BL/6J mice were weaned at 4 weeks of age. Immediately after weaning they were put on about 58% high fat diet ([…], Research Diet) through out the study. The DIO mice at 13 weeks of age weighing in the range of 28-40 g were used in this study. Older mice at 22-24 weeks of age were also used.
Administration of NT-4/5: NT-4/5 used in this study was obtained from Genentech. The mice were divided into 3 groups of equivalent body weight and baseline blood glucose distribution (7-8 mice per group). Each group received from day 1 to day 5, from day 8 to day 12, from day 15 to 16 a daily subcutaneous dose of either vehicle, 2 mg/kg or 10 mg/kg of NT-4/5, respectively. Five days prior to the treatment started (day −5), a baseline blood samples were collected for measuring glucose and triglyceride. Subsequent to the treatment started (day 1), blood glucose and triglyceride were measured once a week. Body weight, food intake were monitored 5 days per week through out the entire study. […] They were fasted overnight (for 16 hours) before fasting glucose levels were measured and the oral glucose tolerance test was conducted with a load of 2 grams of glucose/kg of body weight.

db/db mice [3] = assay: Dose response of NT-4/5 on serum biomarkers of db/db mice (Example 2)
Method: Db/db mice maintained as described in Example 1 were divided into five groups (groups 1-5). Group 1 (7 mice) were administered with vehicle (PBS). Group 2 (7 mice), group 3 (8 mice), group 4 (8 mice), group 5 (8 mice) were each administered with NT-4/5 at the doses of 2 mg/kg, 5 mg/kg, 10 mg/kg, and 20 mg/kg, respectively. Both the vehicle and NT-4/5 were administered to each group of the mice subcutaneously once daily for five days. One day before beginning the treatment (T0), blood samples were collected from the mice as described previously for the determination of baseline levels of serum biomarkers (glucose, triglyceride, and cholesterol). Similarly, at day 6 (T6), blood samples were collected for the determination of serum biomarker levels. The blood samples were treated in the same manner as described in Example 1.
Blood glucose, triglyceride, and cholesterol levels were determined as described in Example 1.

DIO mice [4] = assay: NT-4/5 versus BDNF on body weight and food intake of DIO mice (Example 10)
Excerpt: Test animals: Mice with diet induced obesity (DIO) were used in this study. 22 male C57BL/6J mice were weaned at 4 weeks of age. Immediately after weaning they were put on 58% high fat diet (D12331i, Research Diet) through out the study. The DIO mice at 13 weeks of age weighing in the range of 28-40 g were used in this study.
Administration of NT-4/5 and BDNF: NT-4/5 was produced was produced as described in U.S. Pat. No. 6,184,360. The recombinant human BDNF was obtained from PeproTech Inc. (Rocky Hill, N.J.).
The mice were divided into 3 groups of equivalent body weight distribution (7-8 mice per group). Each group received 2 weekly intravenous doses of either vehicle, 2 mg/kg of NT-4/5 or 2 mg/kg of BDNF, respectively. Body weight and food intake were taken the day before treatment started (day 0) and followed subsequently on a daily basis.

[5] = test system: NONcNZO-10 polygenic obese and diabetic mice; assay: Body weight after intravenous NT-4/5 in NONcNZO-10 mice (Example 3); settings: i.v. 1 mg/kg
Method: Experiment was also performed on the same type of mice by intravenous injection of vehicle (PBS) and NT-4/5 (1 mg/kg) on day 1 and on day 5. About 5% to about 10% reduction of body weight was observed between NT-4/5 treated group and vehicle group between day 2 and day 15.

DIO mice [6] = assay: Glucose, triglyceride and oral glucose tolerance in DIO mice (Example 5); settings: 2 and 10 mg/kg
Method: as §1
Administration of NT-4/5: NT-4/5 used in this study was obtained from Genentech. The mice were divided into 3 groups of equivalent body weight and baseline blood glucose distribution (7-8 mice per group). Each group received from day 1 to day 5, from day 8 to day 12, from day 15 to 16 a daily subcutaneous dose of either vehicle, 2 mg/kg or 10 mg/kg of NT-4/5, respectively. Five days prior to the treatment started (day −5), a baseline blood samples were collected for measuring glucose and triglyceride. Subsequent to the treatment started (day 1), blood glucose and triglyceride were measured once a week. Body weight, food intake were monitored 5 days per week through out the entire study. From days 57-59, the DIO mice received a daily injection of NT-4/5 at 2 or 10 mg/kg respectively. They were fasted overnight (for 16 hours) before fasting glucose levels were measured and the oral glucose tolerance test was conducted with a load of 2 grams of glucose/kg of body weight.

[7] = Day 0 (Baseline), 2 mg/kg group
[8] = Day 0 (Baseline), 5 mg/kg group
[9] = Day 0 (Baseline), 10 mg/kg group
[10] = Day 0 (Baseline), 20 mg/kg group
[11] = weekly intravenous injection, 2 mg/kg
[12] = DIO mice 12-16 weeks of age, not diabetic
[13] = DIO mice 22-24 weeks of age, overt diabetes

B1: NT-4/5: mature human neurotrophin-4/5 (SEQ ID NO:1), obtained from Genentech or produced in E. coli (protein, listed as Homo sapiens)
chain: GVSETAPASRRGELAVCDAVSGWVTDRRTAVDLRGREVEVLGEVPAAGGSPLRQYFFETRCKADNAEEGGPGAGGGGCRGVDRRHWVSECKAKQSYVRALTADAQGRVGWRWIRIDTACVCTLLSRTGRA
In the case of B1, the “food intake, % of the vehicle group level” value (db/db mice [1]; 20 mg/kg, after 10 days of administration, maintained until day 30) is reported as “about 20%”, the “body weight” value (db/db mice [1]; 5 or 20 mg/kg s.c. daily day 1 to 30) is reported as “reduced body weight in a dose dependent manner” and the “time after stop of treatment until food intake returned to vehicle group level” value (db/db mice [1]; mouse, in vivo) is reported as “about 12 days”. The “body weight” value (DIO mice [2]) was “significantly reduced”, the “food intake” value (DIO mice [2]) was “significantly reduced” and the Cholesterol (db/db mice [3]; [7]) was 86.25 mg/dL. For the same molecule, the Glucose (db/db mice [3]; [7]) was 544.50 mg/dL, the Triglyceride (db/db mice [3]; [7]) was 206.13 mg/dL and the Cholesterol (db/db mice [3]; [8]) was 95.88 mg/dL. For the same molecule, the Glucose (db/db mice [3]; [8]) was 563.00 mg/dL, the Triglyceride (db/db mice [3]; [8]) was 217.13 mg/dL and the Cholesterol (db/db mice [3]; [9]) was 90.00 mg/dL. The Glucose (db/db mice [3]; [9]) was 538.00 mg/dL, the Triglyceride (db/db mice [3]; [9]) was 197.50 mg/dL and the Cholesterol (db/db mice [3]; [10]) was 98.38 mg/dL. The Glucose (db/db mice [3]; [10]) was 544.88 mg/dL, the Triglyceride (db/db mice [3]; [10]) was 253.50 mg/dL and the Cholesterol (db/db mice [3]; Day 6, 2 mg/kg s.c. once daily for five days) was 111.43 mg/dL. For the same molecule, the Cholesterol (db/db mice [3]; Day 6, 5 mg/kg s.c. once daily for five days) was 113.25 mg/dL, the Cholesterol (db/db mice [3]; Day 6, 10 mg/kg s.c. once daily for five days) was 108.75 mg/dL and the Cholesterol (db/db mice [3]; Day 6, 20 mg/kg s.c. once daily for five days) was 112.88 mg/dL. The “blood cholesterol levels” value (db/db mice [3]; day 6, 2-20 mg/kg) was “remained at the baseline level”, the “body weight on day 2” value (DIO mice [4]; 2 mg/kg i.v.) was “reduced body weight significantly” and the “food intake on day 2” value (DIO mice [4]; 2 mg/kg i.v.) was “reduced food intake significantly”. The “body weight” value (DIO mice [4]; [11]) was “reduced the body weight more effectively than that of BDNF”, the “food intake” value (DIO mice [4]; [11]) was “reduced the food intake more effectively than that of BDNF” and the “time body weight reduction maintained after 2 staggered intravenous doses” value [5] was “up to 10 days”. For the same molecule, the non-fasting glucose levels (DIO mice [6]; [12]) was “did not affect”, the non-fasting triglyceride levels (DIO mice [6]; [12]) was “did not affect” and the fasting glucose level (DIO mice [6]; [13]) was “significantly reduced fasting glucose level”. The glucose tolerance (DIO mice [6]; [13]) was “improved glucose tolerance”.
